From US11161908 come the findings set out here.

This assay deals with human BAFF-R-GFP fusion protein expressed on the surface of mouse fibroblast (L) cells, clone D2C (human) (UniProt Q96RJ3). The experiment in a line: cell ELISA of hybridoma supernatant on (h)BAFF-R-expressing cells, anti-mouse IgG-HRP; same clone on parental L cell: 0.102. Background: ELISA stands for enzyme-linked immunosorbent assay.

B1: mouse monoclonal antibody from hybridoma Clone 55 (antibody, V domains shown)
VH: QVTLKESGPGILKPSQTLSLTCSFSGFSLSTSGMGVGWIRQPSGKGLEWLAHIWWDDDKYYNSSLKSHLTISKDTSRNQVFLKITSVDTADTATYYCARSFGYGLDYWGQGTTLTVSS
VL: DIQMTQTTSSLSASLGDRVTISCSASQDISNYLNWYQQKPDGTVKLLIYYTSSLHSGVPSRFSGSGSGTDYSLTISSLEPEDIATYYCHQFSELPWTFGGGTKLEIK
In the case of B1, the OD 450 nm was determined as 1.07 OD 450 nm.
